Here are results for four substances from publication PMC10711550.

In data set [1] the target is SOX2DBD (human) (UniProt P48431). Nature of the data set: EMSA. The following applies: EMSA: 10 mM HEPES-NaOH pH 7.3, 50 mM KCl, 5 mM MgCl2, 0.5 mM DTT, 5% glycerol, 0.5 mg/ml BSA; 1 h incubation; 1 nM DNA (Fig 2B); 4% native PAGE, 0.5x TBE, 4 C. On the technique in general: Mobility shift assays separate free from complexed probe on a gel.
Data set [2] deals with SOX2 mutant E78A (human) (UniProt P48431).
Chain of SOX2 mutant E78A (human) (P48431 whole entry E78A): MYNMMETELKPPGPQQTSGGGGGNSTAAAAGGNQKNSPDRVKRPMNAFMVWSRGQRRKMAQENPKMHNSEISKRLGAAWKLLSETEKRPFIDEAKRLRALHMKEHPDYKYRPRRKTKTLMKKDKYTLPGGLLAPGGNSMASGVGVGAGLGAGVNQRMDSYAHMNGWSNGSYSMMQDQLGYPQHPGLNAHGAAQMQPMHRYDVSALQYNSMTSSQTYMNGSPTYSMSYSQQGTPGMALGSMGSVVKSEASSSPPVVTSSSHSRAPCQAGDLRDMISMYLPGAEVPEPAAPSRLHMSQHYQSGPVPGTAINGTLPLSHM
Data set [3] has as its target SOX2 mutant E86A (human) (UniProt P48431).
Data set [4] deals with p300 full length (human) (UniProt Q09472). Nature of the data set: EMSA. As to conditions: EMSA: 10 mM HEPES-NaOH pH 7.3, 50 mM KCl, 5 mM MgCl2, 0.5 mM DTT, 5% glycerol, 0.5 mg/ml BSA; 1 h incubation; 1 nM DNA (Fig 2B); 4% native PAGE, 0.5x TBE, 4 C.
Chain of p300 full length (human) (Q09472 whole entry, the tested form may be a part): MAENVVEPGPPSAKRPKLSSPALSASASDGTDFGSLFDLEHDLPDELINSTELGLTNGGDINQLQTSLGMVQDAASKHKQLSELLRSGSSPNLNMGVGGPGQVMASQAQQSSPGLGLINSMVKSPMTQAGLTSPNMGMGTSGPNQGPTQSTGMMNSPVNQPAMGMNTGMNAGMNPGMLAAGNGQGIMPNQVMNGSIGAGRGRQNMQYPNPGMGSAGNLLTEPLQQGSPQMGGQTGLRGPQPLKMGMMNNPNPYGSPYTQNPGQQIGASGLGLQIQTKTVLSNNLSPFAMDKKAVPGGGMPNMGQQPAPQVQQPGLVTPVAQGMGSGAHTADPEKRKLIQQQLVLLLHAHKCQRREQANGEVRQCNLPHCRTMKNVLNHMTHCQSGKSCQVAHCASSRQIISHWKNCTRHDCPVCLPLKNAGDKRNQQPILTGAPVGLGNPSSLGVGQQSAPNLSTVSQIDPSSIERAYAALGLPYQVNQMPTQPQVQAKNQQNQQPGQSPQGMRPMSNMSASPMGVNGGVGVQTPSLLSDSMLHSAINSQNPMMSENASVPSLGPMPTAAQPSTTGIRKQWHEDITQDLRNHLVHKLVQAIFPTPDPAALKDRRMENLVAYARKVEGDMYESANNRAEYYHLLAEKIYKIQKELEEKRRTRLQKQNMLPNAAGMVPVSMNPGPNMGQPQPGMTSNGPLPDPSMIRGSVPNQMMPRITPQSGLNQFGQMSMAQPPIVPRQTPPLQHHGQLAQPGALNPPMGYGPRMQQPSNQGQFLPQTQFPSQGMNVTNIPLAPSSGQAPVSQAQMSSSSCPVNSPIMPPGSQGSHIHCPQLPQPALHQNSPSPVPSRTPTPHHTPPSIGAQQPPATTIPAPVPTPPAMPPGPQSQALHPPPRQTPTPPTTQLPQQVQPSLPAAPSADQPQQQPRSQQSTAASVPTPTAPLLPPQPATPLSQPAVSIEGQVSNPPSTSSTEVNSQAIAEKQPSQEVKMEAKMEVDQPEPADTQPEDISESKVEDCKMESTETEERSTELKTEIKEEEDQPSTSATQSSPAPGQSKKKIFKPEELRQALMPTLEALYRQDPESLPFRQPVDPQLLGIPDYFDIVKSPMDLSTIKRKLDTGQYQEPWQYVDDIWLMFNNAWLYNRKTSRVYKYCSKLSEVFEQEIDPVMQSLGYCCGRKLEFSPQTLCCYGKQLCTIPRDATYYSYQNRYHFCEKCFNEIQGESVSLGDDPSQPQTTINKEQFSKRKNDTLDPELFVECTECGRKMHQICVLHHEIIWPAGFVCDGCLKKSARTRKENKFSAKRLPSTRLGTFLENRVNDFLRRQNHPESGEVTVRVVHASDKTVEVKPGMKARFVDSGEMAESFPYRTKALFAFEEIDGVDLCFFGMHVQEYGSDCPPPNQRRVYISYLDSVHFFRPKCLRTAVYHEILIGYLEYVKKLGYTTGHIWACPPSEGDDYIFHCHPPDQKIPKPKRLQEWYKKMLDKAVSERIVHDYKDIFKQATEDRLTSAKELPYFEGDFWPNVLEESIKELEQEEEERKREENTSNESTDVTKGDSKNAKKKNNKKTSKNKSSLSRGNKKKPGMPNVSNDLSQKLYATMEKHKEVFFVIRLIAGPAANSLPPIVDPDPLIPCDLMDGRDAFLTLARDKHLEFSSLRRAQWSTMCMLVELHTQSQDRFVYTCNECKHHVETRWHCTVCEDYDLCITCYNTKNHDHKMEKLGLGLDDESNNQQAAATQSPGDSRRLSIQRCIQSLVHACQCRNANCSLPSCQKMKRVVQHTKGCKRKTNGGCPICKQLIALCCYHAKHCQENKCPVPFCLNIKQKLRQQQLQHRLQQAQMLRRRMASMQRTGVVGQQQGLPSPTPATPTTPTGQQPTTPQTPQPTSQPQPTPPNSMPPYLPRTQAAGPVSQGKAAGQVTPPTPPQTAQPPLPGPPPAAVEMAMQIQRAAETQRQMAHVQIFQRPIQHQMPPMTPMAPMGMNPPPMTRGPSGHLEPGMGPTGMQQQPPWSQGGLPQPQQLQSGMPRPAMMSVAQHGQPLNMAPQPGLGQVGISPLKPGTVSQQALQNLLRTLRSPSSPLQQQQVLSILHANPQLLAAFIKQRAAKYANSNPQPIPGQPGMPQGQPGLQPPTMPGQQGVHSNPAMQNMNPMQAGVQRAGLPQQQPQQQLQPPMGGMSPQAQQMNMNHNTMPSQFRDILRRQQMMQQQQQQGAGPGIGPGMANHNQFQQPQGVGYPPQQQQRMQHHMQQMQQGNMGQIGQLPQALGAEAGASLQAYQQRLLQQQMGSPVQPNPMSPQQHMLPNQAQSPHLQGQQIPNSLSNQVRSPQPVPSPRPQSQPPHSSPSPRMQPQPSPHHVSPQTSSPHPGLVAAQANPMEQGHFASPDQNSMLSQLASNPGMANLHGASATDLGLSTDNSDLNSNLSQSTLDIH
Data set [5] has as its target full-length human SOX2 (human) (UniProt P48431). Nature of the data set: BLI; SOX2 (0.2 mg/ml) immobilised on an AR2G chip, quenched with 1 M ethanolamine; p300 fragments in PBS; global fit to a 1:1 binding model (BLItz Pro v.1.2.1.5). (BLI is a label-free optical method that tracks binding on a fibre tip over time.)

Usually Kd stands for a measure of binding affinity in units of concentration. High values mean a looser complex, low ones a tighter complex. One may read the koff as the rate constant with which the complex falls apart. Read a low koff as a long-lived complex. Broadly, the kon is a measure of how fast the partners come together. A high value points to fast association.

Chain of full-length human SOX2 (human) (P48431 whole entry, the tested form may be a part): as the sequence (P48431 whole entry E78A) above, with A78E counted along it
Chain of SOX2DBD (human) (P48431 39-127): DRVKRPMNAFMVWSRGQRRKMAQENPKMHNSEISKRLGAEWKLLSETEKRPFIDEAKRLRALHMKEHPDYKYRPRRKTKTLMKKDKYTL
Chain of SOX2 mutant E86A (human) (P48431 whole entry E86A): as the sequence (P48431 whole entry E78A) above, with A78E, E86A counted along it

With “GTAGTCCTTGCATGTCCCGGAACTTGCTATGTAGATCAGGCTAAAGTCTAACTCAGACTTCCACCACCTCTCAGGGTGTGCGGCCCCAAGATAAGAAGATATTCAAAAGAGGCACCTGAGTCTCTCAATCTGACTATCAATAGAATTGAAATCAATTGGAATAATGGACCGC (double strand) [dSM]”, the binding result in data set [1] was “no binding”.
As to “full-length p300 (Protein One), Q09472 1-2414”, the luciferase activity of pGL3-SM in cells expressing the SOX2 mutant, relative to wild-type SOX2 in data set [2] and in data set [3] was 30% in each case.
Regarding “GCGGTCCATTATTCCAATTGATTTCAATTCTATTGATAGTCAGATTGAGAGACTCAGGTGCCTCTTTTGAATATCTTCTTTTGTTGGGGCCGCACACCCTGAGAGGTGGTGGAAGTCTGAGTTAGACTTTAGCCTGATCTACATAGCAAGTTCCGGGACATGCAAGGACTAC (double strand) [SM]”, the binding entry in data set [4] is reported as “no binding”. For the same substance, in data set [1], the binding signal was 71 % bound.
Consider “p300 KIX domain (aa 566-646) (from UniProt Q09472 566-646) (domain or fragment)”, for which, in data set [5], the Kd came out at 2680 nM, the dissociation rate constant (koff) was 0.0469 s⁻¹ and the kon turned out to be 12300 M⁻¹ s⁻¹.
